# Measured values: patent US8114412B2, “T. cruzi-derived neurotrophic agents and methods of use therefor” (priority 1999, dated 2012)
# Entries after “also recorded” stand apart in the source; their conditions may differ.
# B1: TS: T. cruzi trans-sialidase purified by immuno-affinity chromatography from supernatants of infected Vero cells (SEQ ID NO:2, SEQ ID NO:34) (protein, listed as Trypanosoma cruzi)
# chain: MVAIADARYETSSENSLIDTVAKYSVDDGETWETQIAIKNSRVSSVSRVVDPTVIVKGNKLYVLVGSYYSSRSYWSSHGDARDWDILLAVGEVTKSTAGGKITASIKWGSPVSLKKFFPAEMEGMHTNQFLGGAGVAIVASNGNLVYPVQVTNKRKQVFSKIFYSEDDGKTWKFGKGRSDFGCSEPVALEWEGKLIINTRVDWKRRLVYESSDMEKPWVEAVGTVSRVWGPSPKSNQPGSQTSFTAVTIEGMRVMLFTHPLNFKGRCVRDRLNLWLTDNQRIYNVGQVSIGDENSAYSSVLYKDDKLYCLHEINTDEVYSLVFARLVGELRIIKSVLRSWKNWTATCPAFAPLLIQPLRRQRVVVVPLSPRLVLLAFCRQRLPKRMGGSYRCVNASTANAERVRNGLKFAGVGGGALWPVSQQGQNQRYRFANHAFTLVASVTIHEAPRAASPLLGASLDSSGGKKLLGLSYDEKHQWQPIYGSTPVTPTGSWETGKRYHLVLTMANKIGSVYIDGELLEGSGQTVVPDGRTPDISHFYVGGYKRSDMPTISHVTVNNVLLYNRRQLNTEEIRTLFLSQDLIGTEAHMDSSSDSSAHSTPSTPADSSAHSTPSTPVDSSAHSTPSTPADSSAHGTPSTPVDSSAHGTPSTPADSSAHGTPSTPVDSSAHSTPSTPVDSSAHSTPSTPVDSSAHGAPSTPADSSAHGTPSTPVDSSAHGTPSTPADSSAHSTPSTPADSSAHSTPSTPADSSAHSTPSTPVDSSAHGTPSTPADSSAHSTPSTPADSSAHGTPSTPVDSSAHSTPSTPVDSSAHGTPSTPVDSSAHSTPSTPVDSSAHGTPSTPVDSSAHSTPSTPADSSAHSTPSTPADSSAHGTPSTPVDSSAHSTPSTPADSSAHSTPSTPVDSSAHSTPSTPADSSAHGTPSTPVDSSAHGTPSTPADSSAHSTPSTPADSSAHSTPSTPADSSAHSTPSTPVDSSAHSTPSTPADSSAHSTPSTPADSSAHSTPSTPADSSAHSTPSTPVDSSAHSTPSTPADSSAHGTPSTPADSSAHSTPSTPVDSSAHSTPSTPADSSAHGTPSTPADSSAHSTPSTPADSSAHGTPSTPADSSAHSTPSTPAGSSANGTVLILPDGAALSTFSGGGLLLCACALLLHVFFMAVF
# B2: TS-F: recombinant full catalytic domain of TS, amino acid residues 33-666, His-tagged, expressed in E. coli (protein, listed as Trypanosoma cruzi)
# chain: ETQIAIKNSRVSSVSRVVDPTVIVKGNKLYVLVGSYYSSRSYWSSHGDARDWDILLAVGEVTKSTAGGKITASIKWGSPVSLKKFFPAEMEGMHTNQFLGGAGVAIVASNGNLVYPVQVTNKRKQVFSKIFYSEDDGKTWKFGKGRSDFGCSEPVALEWEGKLIINTRVDWKRRLVYESSDMEKPWVEAVGTVSRVWGPSPKSNQPGSQTSFTAVTIEGMRVMLFTHPLNFKGRCVRDRLNLWLTDNQRIYNVGQVSIGDENSAYSSVLYKDDKLYCLHEINTDEVYSLVFARLVGELRIIKSVLRSWKNWTATCPAFAPLLIQPLRRQRVVVVPLSPRLVLLAFCRQRLPKRMGGSYRCVNASTANAERVRNGLKFAGVGGGALWPVSQQGQNQRYRFANHAFTLVASVTIHEAPRAASPLLGASLDSSGGKKLLGLSYDEKHQWQPIYGSTPVTPTGSWETGKRYHLVLTMANKIGSVYIDGELLEGSGQTVVPDGRTPDISHFYVGGYKRSDMPTISHVTVNNVLLYNRRQLNTEEIRTLFLSQDLIGTEAHMDSSSDSSAHSTPSTPADSSAHSTPSTPVDSSAHSTPSTPADSSAHGTPSTPVDSSAHGTPSTPADSSAHGTPSTPVDS
# modifications: His tag
# notes: recombinant full catalytic domain of TS, amino acid residues 33-666, His-tagged, expressed in E. coli
# What was measured:
# [1] = tested on: primary rat cerebellar granule neurons; experiment: Survival of primary cerebellar granule neurons in low K+ medium; assay type: cell-based; conditions: serum-free BME 5 mM KCl, TS 100 ng/ml, 24 hours, FDA staining
# Procedure: Cultures enriched in granule neurons were obtained from the cerebellum of 8-days-old Wistar rats (Charles River, Wilmington, Mass.) as described by D'Mello et al., J. Neurosci 17:1548-1560 (1997). Cells were plated in basal Eagle medium (BME, Gibco BRL, Gaithersburg, Md.), supplemented with 10% FCS, 25 mM KCl and 2 mM glutamine (Gibso BRL) on dishes coated with poly-L-lysine and laminin. Cytosine arabinofumoside (10 μM) was added to the culture medium 18-22 hrs after plating to prevent replication of non-neuronal cells. Replacement of culture medium with serum-free BME medium was performed 7-10 days after plating. Cells were maintained in serum-free BME with 5 mM KCl for 3 hrs and challenged with different stimuli. Neuronal survival was assayed after 24 hours by staining with 10 μg/ml fluorescein diacetate (FDA, Sigma) (Jones and Senft, 1985) and with DAPI (see above). Chicken dorsal root ganglia neurons were prepared as described (Cox and Dunlap, J. Gen. Physiol 104:311-336 (1994)).
# [2] = tested on: human intestinal microvascular endothelial cells (HIMEC); experiment: IL-6 secretion by HIMEC (ELISA); assay type: cell-based
# Procedure: Primary cultures of human intestinal microvascular endothelial cells (HIMEC) isolated from normal jejunal mucosa/submucosal tissue were prepared as described (Strong et al., Gastroenterology 114: 1244-1256 (1998)). The HIMEC were cultured in fibronectin-coated plasticware in MCDB medium (Sigma) supplemented with 20% FBS, 90 μg/ml heparin and 50 μg/ml endothelial cell growth factor (Sigma). T-24 cells (ATCC Accession No. HTB-4) were cultured in M199 medium supplemented with 10% FBS. PBMC were purified by Ficoll-Paque gradient as described (Current Protocols in Immunology, pp 7.1.1-7.1.2). Vero cells (ATCC Accession No. CCL-81) were grown in RPMI medium with 5% Nu serum and infected with the Silvio X-10/4 of T. cruzi as described previously (Chuenkova et al., J. Exp. Med. 181: 1693-1703, (1995)).
# (§1) Endothelial cells and T-24 cells were plated on 24-well plates at a density of 1×10^3 cells/well, while peripheral blood mononuclear cells (PBMC) were plated in the similar wells at 1×10^6/well. Triplicat cultures of cells were incubated test agents for a predetermined amount of time. […] Cytokines and chemokines released in the culture supernatants were measured by ELISA assay following the instructions of the manufacturer (Endogen). The cytokines tested were IL-1β, IL-4, IL-8, IL-10, IL-12, IFN-γ, TNF-α, and the chemokines RANTES and MCP-1. Negative controls were cells incubated in medium containing polymixin B at 10 μg/ml, and positive controls were cells incubated with bacterial LPS at the low ng/ml range (for PBMC or HIMEC) or in the μg/ml range for carcinoma T-24 cells. In some experiments, IL-1β, or TNFα were used as positive control for cytokine release.
# DS-1 B-lymphoma cells = experiment: Bioassay for IL-6 with IL-6 dependent DS-1 cells; assay type: cell-based, human; conditions: conditioned media of PBMC or T-24 cells (TS 1 μg/ml, 24 hr) diluted into IL-6 free media; or TS 1 μg/ml directly
# Procedure: Bioassay for IL-6 was performed using IL-6 dependent human DS-1 cells (Bock et al., Cytokine 5: 480-489 (1993), ATCC Accession No. CRL-11102). Briefly, 1×10^4 cells/well were plated in 96-well plates and incubated for 24 hrs in IL-6-free medium (10% FCS in RPMI) containing several dilutions of TS-conditioned media or exogenous rIL-6. The cultures were pulsed with 0.5 μCi ^3H-thymidine for 4 hrs and harvested to determine radioactivity incorporation using a microplate scintillation instrument (Packard). In some studies, a neutralizing anti-IL-6 rabbit IgG or normal rabbit IgG (Endogen) was added to the dilutions of TS-conditioned prior to assaying for growth-stimulation of DS-1 cells. TS conditioned media was prepared by incubating PBMC or T-24 cells for 24 hr in 10% FCS/RPMI without (CM) or with (TS/CM) TS at 1 μg/ml. Supernatants were centrifuged at 1,000×g to remove cell debris and were kept frozen at −20° C. until use.
# IL-6 mRNA in PBMC = experiment: RT-PCR of IL-6 mRNA in PBMC; assay type: cell-based, human
# Procedure: Semiquantitative analysis of cytokine mRNA was performed by the primer-dropping method (Wong et al., Anal. Biochem. 223:251-258, […])). […] Two μg of total RNA were converted to cDNA in a volume of 20 μl using random hexamer primers according to the manufacturer's instructions (GIBCO-BRL). Synthetic DNA primers for human IL-6 were 5′[…] (SEQ ID NO:24) and 5′[…] (SEQ ID NO:25), and for GAPDH were those described in Example 1 (SEQ ID NO: 10 and SEQ ID NO:11). The PCR mixture contained 20 mM Tris-HCl pH 8.4, 50 mM KCl, 1.5 mM MgCl2, 1 mM dNTP, 200 pM primers and 1 U of Taq polymerase in 50 μl. Thermal cycling conditions were: denaturation step 95 degrees for 5 min; 35 cycles of 95 degrees 30 sec, 60 degrees 30 sec and 75 degrees 1 min, and a final step of 75 degrees for 5 min. At cycle number 9, GAPDH primers were added. Five microliters of the PCR product were alalyzed by electrophoresis through 2% agarose-gel in the presence of 1 μg/ml ethidium bromide.
# [3] = tested on: human intestinal microvascular endothelial cells (HIMEC); experiment: Other cytokines and chemokines in HIMEC supernatants (ELISA); assay type: cell-based; conditions: 24 hrs; bacterial LPS 50 ng/ml
# Procedure: as §1
# [4] = tested on: mouse splenocytes, bone marrow cells, and peritoneal cells; experiment: IL-6 secretion by naive mouse cells; assay type: cell-based; conditions: peritoneal cells from BALB/c and other strains of mice
# [5] = tested on: Akt kinase in human Schwann cells; experiment: Kinase assay of Akt in vitro (GSK-3α substrate) from Schwann cell lysates; assay type: cell-based; conditions: CD 500 ng/ml, 2 minutes
# [6] = tested on: Akt kinase in human Schwann cells; experiment: Immunodetection of activated Akt (Ser473) in Schwann cells
# Procedure: Schwann cells, grown in 10% FCS to 70% confluency in 6-well plates, were switched to DMEM containing 0.1% FCS for 48 hours to reduce basal Akt phosphorylation. Then the cells were placed in serum-free DMEM medium for 2 hours and challenged with TS, CD or other test factors for predetermined periods of time. When the PI-3 kinase inhibitor LY294002 (Sigma) was used, the inhibitor was added to the serum-starved cells 30 minutes before challenge with TS or CD. Cell samples were lysed with lysis buffer (20 mM Tris, pH7.5, 150 mM NaCl, 1 mM EDTA, 1% Triton X-100 (t-Octylphenoxypolyethoxyethanol), 2.5 mM sodium pyrophosphate, 1 mM glycerophosphate, 1 mM Na3VO4, 1 μg/ml leupeptin and 1 mM Phenymethylsulfonyl fluoride (PMSF)). Samples (40 μg) were run on 10% SDS-Page, blotted to nitrocellulose paper and analyzed by Western (immuno) blot with monoclonal antibody specific for P-Ser473 of Akt (New England Biolabs). Reaction was visualized by chemiluminescence using the ECL kit (New England Nuclear).
# Schwann cells were seeded in 10% FCS to 50-70% confluency in 10 cm Petri dishes 24 h prior transfection, performed in serum-free DMEM. Cells were maintained in 10% FCS for 24 hr and then switched to medium containing 700 μg/ml G418 (Gibco BRL) and 2% FCS for 3 days and 0.1% FCS for another 4 days with CD added to some cell monolayers. After this cells were assessed for viability by Trypan blue exclusion and by DAPI staining. At the same time cell lysates were analyzed for Akt phosphoryltion by Western (immuno) blots with monoclonal antibody specific for P-Ser473 of Akt (New England Biolabs). Reaction was visualized by chemiluminescence using the ECL kit (New England Nuclear).
Molecule,protection of primary cerebellar granule neurons from death in low K+ medium [1],IL-6 secretion by HIMEC ([2]; 24 hrs culture),bacterial LPS concentration inducing the same quantity of IL-6 in HIMEC ([2]; TS 1 μg/ml),stimulation time for maximum IL-6 secretion in HIMEC ([2]; TS 1 μg/ml),proliferation/growth of IL-6-dependent DS-1 cells (DS-1 B-lymphoma cells),"expression of IL-6 mRNA in PBMC (IL-6 mRNA in PBMC; TS 1 μg/ml, 4, 10 or 24 hours)",time of maximal upregulation of IL-6 transcripts (IL-6 mRNA in PBMC; after TS stimulation),"concentration of other cytokines (IL-1β, IL-4, IL-8, IL-10, IL-12, INF-γ, TNF-α, RANTES, MCP-1) in HIMEC supernatants [3]",IL-6 secretion by naive mouse cells [4],Akt kinase activity in control GFP-transfected Schwann cells [5],Akt kinase activity in Schwann cells over expressing AktKI ([5]; listed as CD),Akt phosphorylation in Schwann cells transfected with PTEN mutant pG129R ([6]; CD 500 ng/ml),phospho-Akt in Schwann cells transfected with empty vector (neo) ([6]; CD 500 ng/ml),time after which phospho-Akt not detected ([6]; CD 500 ng/ml),time to activation of Schwann cell Akt kinase ([6]; CD 500 ng/ml),"phosphorylation/activation of Akt kinase in human Schwann cells ([6]; CD 500 ng/ml where stated, Western blot P-Akt (Ser473), listed as CD)","phospho-Akt in Schwann cells over expressing PTEN ([6]; CD 500 ng/ml, listed as CD)"
B1,effectively protected the neurons from death; also recorded: increased number of viable cells,potently and specifically induced IL-6 secretion; also recorded: elevated in the conditioned supernatants in a manner dependent on the TS input,50 ng/mL,24 h,did not restore growth of the DS-1 cells; also recorded: did not induce proliferation,induces expression of IL-6 mRNA,4 to 10 h,did not increase,potently and specifically induced IL-6 secretion; also recorded: upregulator of IL-6 secretion,–,–,–,–,–,–,–,–
B2,–,–,–,–,–,–,–,–,–,stimulation of Akt activity,inability of CD to enhance endogenous Akt enzymatic activity; also recorded: did not activate Akt kinase,did not detectably enhance,boosted levels of phospho-Akt,15 min,1 to 5 min,induced transient phosphorylation of Akt kinase,did not result in the generation of phospho-Akt; also recorded: did not induce phosphorylation of Akt kinase
